The source of these data is doi:10.1101/2021.02.07.430159.

The test deals with GST-MLLE protein (MLLE domain of PABPC1). Briefly: SPR.

B1: super-PAM2 peptide (peptide)
peptide: SNLNPNAPEFHPGVPWKGLQ
Take B1: the dissociation constant Kd (commonly the concentration at which binding is half-saturated) came to 0.02 µM. In other words, the double-digit nanomolar range.
